Measured values taken from the supplement of paper PMC10126150.
± gives the standard deviation of the averaged measurements.

These sequences were tested on ATP (assay: switch fluorescence ratio, 500 uM ATP over buffer (Cy3 cluster intensity, sum of 5 cycles each) (fold (ratio)); higher = stronger signal-on switching upon ATP binding; sequences stand for … in TCGTCGGCAGCGTCAGATGTGTATAAGAGACAGTTTTTTTTTTTTTTTTTTTTTTTTT…TC). Conditions: aptamer strand: ATP DNA aptamer (quencher-CACCTGGGGGAGTATTGCGGAGGAAGG + anchor), 100 nM annealed; ATP concentration: 500 uM.
Procedure, shortened: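 Cy3-labelled switching-strand clusters on a modified Illumina MiSeq flow-cell were annealed to 100 nM quencher-labelled ATP aptamer and imaged first in selection buffer, then after 15 min with 500 uM ATP at 22 °C. NaOH stripping and re-annealing separated each of five buffer/ATP cycles, and clusters outside 100-1000 RFU were excluded. The fluorescence ratio sums target-cycle Cy3 intensity over buffer-cycle Cy3 intensity per cluster and averages it per switch-domain sequence.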
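Further: ATP exposure 15 min at 22 °C before imaging.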

Row | Sequence | switch fluorescence ratio
1 | ATACAGGAAC | 1.03 ± 0.038
2 | ATACCATTTC | 1.03 ± 0.049
3 | ATACCCAAGC | 1.09 ± 0.011
4 | ATACCTAGCT | 1.05 ± 0.019
5 | ATACGAGATT | 1.009 ± 0.0079
6 | ATACGCAGGG | 1.06 ± 0.061
7 | ATACGCTGTT | 0.9875 ± 0.0082
8 | ATACGGCCCC | 1.2 ± 0.1
9 | ATACGTGGCA | 0.9601 ± 0.0037
10 | ATACTATATT | 1.05 ± 0.017
11 | ATACTATTAT | 1.03 ± 0.013
12 | ATACTGGGGT | 1.04 ± 0.056
13 | ATACTTACTT | 1.197 ± 0.011
14 | ATACTTTATT | 1.09 ± 0.034
15 | ATACTTTTTT | 1.01 ± 0.061
16 | ATAGAAGGTG | 1.43 ± 0.025
17 | ATAGAATGGT | 0.9829 ± 0.00046
18 | ATAGAATTGG | 1.02 ± 0.021
19 | ATAGACTTAT | 0.9765 ± 0.0093
20 | ATAGAGGAGG | 1 ± 0.021
21 | ATAGAGGCTG | 1.04 ± 0.064
22 | ATAGAGGGAT | 0.98 ± 0.026
23 | ATAGAGGGGG | 0.996 ± 0.03
24 | ATAGATCCTT | 0.9996 ± 0.0087
25 | ATAGATGAGT | 1.012 ± 0.0048

Row | Sequence | switch fluorescence ratio
26 | ATAGATTGTT | 1.39 ± 0.59
27 | ATAGCACGTT | 1.03 ± 0.025
28 | ATAGCAGAAG | 1.06 ± 0.012
29 | ATAGCAGGCG | 1.01 ± 0.027
30 | ATAGCGCCGT | 1.01 ± 0.011
31 | ATAGCTTGTA | 0.995 ± 0.037
32 | ATAGCTTGTG | 0.996 ± 0.023
33 | ATAGGACATC | 1.03 ± 0.04
34 | ATAGGAGTAG | 0.993 ± 0.036
35 | ATAGGAGTCT | 1.09 ± 0.016
36 | ATAGGATGAG | 1.022 ± 0.0091
37 | ATAGGCACAT | 1.03 ± 0.029
38 | ATAGGCATCA | 1.18 ± 0.3
39 | ATAGGCGTCG | 0.967 ± 0.032
40 | ATAGGCTATA | 0.976 ± 0.025
41 | ATAGGGAGAG | 0.987 ± 0.016
42 | ATAGGGAGGC | 0.967 ± 0.035
43 | ATAGGGATTG | 0.996 ± 0.031
44 | ATAGGGCCGC | 1.02 ± 0.034
45 | ATAGGGCG | 0.987 ± 0.011
46 | ATAGGGGGGT | 1.02 ± 0.018
47 | ATAGGGTACA | 1.11 ± 0.052
48 | ATAGGTAGGG | 0.984 ± 0.0086
49 | ATAGGTATGC | 1 ± 0.06
50 | ATAGGTCAAC | 0.992 ± 0.044

Row | Sequence | switch fluorescence ratio
51 | ATAGTACGCC | 1.28 ± 0.33
52 | ATAGTAGTAG | 0.998 ± 0.011
53 | ATAGTAGTGT | 0.998 ± 0.015
54 | ATAGTATAAG | 1.002 ± 0.0073
55 | ATAGTATATT | 0.982 ± 0.044
56 | ATAGTATGGG | 0.99 ± 0.046
57 | ATAGTCAGGG | 0.988 ± 0.036
58 | ATAGTCATAC | 1.25 ± 0.099
59 | ATAGTCTTTT | 1.02 ± 0.034
60 | ATAGTGATAT | 1.06 ± 0.11
61 | ATAGTGGTTT | 1.02 ± 0.021
62 | ATAGTGTGTT | 0.989 ± 0.021
63 | ATAGTTATGG | 0.992 ± 0.011
64 | ATAGTTGCGG | 1.047 ± 0.0011
65 | ATAGTTGGC | 1.04 ± 0.07
66 | ATAGTTGTGG | 0.977 ± 0.025
67 | ATAGTTGTTT | 1 ± 0.019
68 | ATATAAAAAG | 1.02 ± 0.061
69 | ATATAAGTGA | 0.9543 ± 0.0063
70 | ATATAATACG | 1.01 ± 0.024
71 | ATATACAGGG | 1.06 ± 0.024
72 | ATATACATGT | 1.02 ± 0.038
73 | ATATACTTCT | 1.02 ± 0.025
74 | ATATAGCACG | 1.02 ± 0.033
75 | ATATAGGTGG | 0.999 ± 0.026

Row | Sequence | switch fluorescence ratio
76 | ATATATAGTT | 1.043 ± 0.01
77 | ATATATGAGG | 0.974 ± 0.03
78 | ATATATTTAG | 0.996 ± 0.012
79 | ATATCTCGAG | 0.981 ± 0.02
80 | ATATGAACGA | 1.021 ± 0.0066
81 | ATATGAGGGG | 0.965 ± 0.027
82 | ATATGAGGTT | 0.977 ± 0.023
83 | ATATGAGTGA | 0.985 ± 0.013
84 | ATATGATGTA | 0.966 ± 0.014
85 | ATATGATTAG | 0.993 ± 0.021
86 | ATATGCATGG | 0.969 ± 0.014
87 | ATATGCCCT | 1.04 ± 0.03
88 | ATATGCTTTC | 0.994 ± 0.011
89 | ATATGGAGCA | 1.03 ± 0.046
90 | ATATGGTGGT | 1.03 ± 0.023
91 | ATATGGTGTA | 0.959 ± 0.021
92 | ATATGGTGTT | 1.01 ± 0.025
93 | ATATGTCAAG | 1.0025 ± 0.00017
94 | ATATGTGACG | 1 ± 0.033
95 | ATATGTGGCT | 0.99 ± 0.054
96 | ATATGTGGGG | 1.01 ± 0.011
97 | ATATGTTATG | 0.982 ± 0.015
98 | ATATGTTGTC | 0.894 ± 0.11
99 | ATATGTTGTT | 0.98 ± 0.025
100 | ATATTAAAGT | 1.038 ± 0.0047

Row | Sequence | switch fluorescence ratio
101 | ATATTAAGAT | 0.988 ± 0.028
102 | ATATTAAGTC | 1.02 ± 0.013
103 | ATATTAGATT | 1.019 ± 0.0076
104 | ATATTAGGTC | 1.01 ± 0.016
105 | ATATTAGTAT | 1.01 ± 0.038
106 | ATATTATTTT | 0.9788 ± 0.0047
107 | ATATTCAGTA | 1 ± 0.015
108 | ATATTCTTAG | 1.01 ± 0.013
109 | ATATTCTTTG | 0.997 ± 0.016
110 | ATATTGAGGT | 1 ± 0.013
111 | ATATTGATTA | 1.02 ± 0.032
112 | ATATTGGGGT | 1.01 ± 0.019
113 | ATATTGGTAC | 1.034 ± 0.0013
114 | ATATTTAAAA | 0.985 ± 0.021
115 | ATATTTACTA | 1.11 ± 0.11
116 | ATATTTGAGT | 0.9878 ± 0.0045
117 | ATATTTGGCG | 1.007 ± 0.0029
118 | ATATTTTATG | 1.03 ± 0.044
119 | ATATTTTCAG | 0.994 ± 0.012
120 | ATATTTTGGG | 1.003 ± 0.0089
121 | ATCAAAATTT | 1.03 ± 0.028
122 | ATCAAAGCGG | 0.998 ± 0.0094
123 | ATCAAAGGGA | 0.976 ± 0.048
124 | ATCAACGGAA | 1.08 ± 0.013
125 | ATCAACGGCA | 1.07 ± 0.023

Row | Sequence | switch fluorescence ratio
126 | ATCACGGGGG | 1.02 ± 0.019
127 | ATCACTGATT | 1.057 ± 0.0085
128 | ATCAGAAGGT | 0.995 ± 0.021
129 | ATCAGAATGA | 1.013 ± 0.0023
130 | ATCAGATTAC | 1.025 ± 0.0092
131 | ATCAGATTTT | 0.9867 ± 0.0034
132 | ATCAGCCATA | 1.03 ± 0.036
133 | ATCAGGGCGG | 0.9887 ± 0.0089
134 | ATCAGGGGCA | 1.057 ± 0.0049
135 | ATCAGGGTAT | 1.07 ± 0.089
136 | ATCAGGGTGC | 1.06 ± 0.051
137 | ATCAGGTGGT | 1.19 ± 0.036
138 | ATCAGTATTA | 1.02 ± 0.016
139 | ATCAGTTCCT | 1.04 ± 0.013
140 | ATCATACACT | 1.06 ± 0.018
141 | ATCATACGGG | 1.03 ± 0.02
142 | ATCATACTGT | 1.007 ± 0.0024
143 | ATCATAGGGG | 1 ± 0.016
144 | ATCATCTGAC | 1.095 ± 0.0095
145 | ATCATGATTC | 0.983 ± 0.018
146 | ATCATGGGAC | 1.03 ± 0.0069
147 | ATCATTAGGG | 0.976 ± 0.032
148 | ATCATTAGTA | 0.999 ± 0.021
149 | ATCCAGGGGT | 1.06 ± 0.022
150 | ATCCAGGGTA | 1.01 ± 0.03

Row | Sequence | switch fluorescence ratio
151 | ATCCAGGTAG | 1.75 ± 0.076
152 | ATCCCGAAGC | 1.93 ± 0.18
153 | ATCCCGGGGA | 0.962 ± 0.014
154 | ATCCCGTAGG | 0.9905 ± 0.0084
155 | ATCCCTAAAA | 1.0207 ± 0.00031
156 | ATCCCTCATA | 1.01 ± 0.018
157 | ATCCGCCGCT | 1.72 ± 0.089
158 | ATCCGGACTT | 1.02 ± 0.034
159 | ATCCGGCGAT | 1.35 ± 0.018
160 | ATCCGGGGTT | 1.06 ± 0.057
161 | ATCCGGGTGG | 1 ± 0.059
162 | ATCCGGTTTG | 0.982 ± 0.041
163 | ATCCGTAATT | 2.6 ± 0.22
164 | ATCCGTTTTT | 1 ± 0.016
165 | ATCCTAGTGT | 1.04 ± 0.052
166 | ATCCTTGTTT | 0.997 ± 0.083
167 | ATCCTTTCTT | 1.003 ± 0.0062
168 | ATCGAAAAGG | 0.998 ± 0.027
169 | ATCGAAGGTA | 0.985 ± 0.013
170 | ATCGAATTGG | 0.998 ± 0.026
171 | ATCGAGGCGT | 1.01 ± 0.019
172 | ATCGAGGTCC | 1.01 ± 0.074
173 | ATCGATGAGC | 1.006 ± 0.004
174 | ATCGATGCTT | 0.979 ± 0.012
175 | ATCGATTGAG | 0.971 ± 0.015

Row | Sequence | switch fluorescence ratio
176 | ATCGATTTCT | 1.004 ± 0.0049
177 | ATCGCAGATT | 1.03 ± 0.019
178 | ATCGCCCGTT | 1.01 ± 0.016
179 | ATCGGCGGTG | 0.986 ± 0.025
180 | ATCGGCTCTC | 1.03 ± 0.025
181 | ATCGGCTCTG | 0.991 ± 0.043
182 | ATCGGGAATT | 1.009 ± 0.0044
183 | ATCGGGAGGG | 1 ± 0.013
184 | ATCGGGATTA | 0.987 ± 0.021
185 | ATCGGGGGCT | 0.98 ± 0.038
186 | ATCGGGGTGG | 1 ± 0.071
187 | ATCGGGTATG | 0.9987 ± 0.0082
188 | ATCGGTATTT | 1.19 ± 0.39
189 | ATCGGTCGGG | 1.011 ± 0.0088
190 | ATCGGTCTTT | 0.997 ± 0.084
191 | ATCGGTGACA | 1 ± 0.035
192 | ATCGGTGTGT | 0.989 ± 0.045
193 | ATCGGTTGTG | 1.01 ± 0.029
194 | ATCGTATATG | 0.972 ± 0.043
195 | ATCGTATGTA | 0.9708 ± 0.0055
196 | ATCGTGGTCA | 0.987 ± 0.018
197 | ATCGTGTGTG | 0.991 ± 0.035
198 | ATCGTGTTGT | 1.02 ± 0.015
199 | ATCGTTGTGG | 0.9893 ± 0.0048
200 | ATCTAAAGGG | 0.999 ± 0.015
